Test results from patent US20180179267A1 (published 2018).

Key:
LukGH_MSHR1132 = biological target: T1, LukGH_MSHR1132; assay: ForteBio
T1 chain 1: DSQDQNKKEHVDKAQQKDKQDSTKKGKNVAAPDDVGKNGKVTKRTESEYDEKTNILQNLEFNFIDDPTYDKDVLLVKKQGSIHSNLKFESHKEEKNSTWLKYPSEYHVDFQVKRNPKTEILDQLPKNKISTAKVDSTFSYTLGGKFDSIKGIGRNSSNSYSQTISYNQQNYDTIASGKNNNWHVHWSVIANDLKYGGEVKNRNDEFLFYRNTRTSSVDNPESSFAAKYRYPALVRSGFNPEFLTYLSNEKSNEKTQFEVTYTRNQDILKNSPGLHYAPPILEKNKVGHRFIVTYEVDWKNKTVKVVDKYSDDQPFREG
T1 chain 2: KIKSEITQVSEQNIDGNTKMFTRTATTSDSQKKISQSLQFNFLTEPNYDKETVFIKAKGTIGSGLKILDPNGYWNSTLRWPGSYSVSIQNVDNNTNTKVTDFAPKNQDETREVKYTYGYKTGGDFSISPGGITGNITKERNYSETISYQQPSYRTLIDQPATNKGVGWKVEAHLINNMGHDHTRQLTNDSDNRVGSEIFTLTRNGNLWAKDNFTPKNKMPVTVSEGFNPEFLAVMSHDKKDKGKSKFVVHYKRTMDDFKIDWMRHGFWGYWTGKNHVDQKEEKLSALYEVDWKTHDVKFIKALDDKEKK

LukG_TCH1516 [1] = biological target: T2, LukG_TCH1516; assay: ForteBio
T2 chain: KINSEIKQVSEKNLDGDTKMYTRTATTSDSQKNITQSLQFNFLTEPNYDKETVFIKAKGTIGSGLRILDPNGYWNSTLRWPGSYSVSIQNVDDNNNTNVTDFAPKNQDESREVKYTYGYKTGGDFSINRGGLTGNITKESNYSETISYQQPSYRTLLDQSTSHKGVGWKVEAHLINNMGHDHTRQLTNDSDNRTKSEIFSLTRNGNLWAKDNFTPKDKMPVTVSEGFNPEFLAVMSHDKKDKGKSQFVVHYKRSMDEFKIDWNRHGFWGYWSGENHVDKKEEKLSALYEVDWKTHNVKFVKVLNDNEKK

LukGH_H19 = biological target: T3, LukGH_H19; assay: ForteBio
T3 chain 1: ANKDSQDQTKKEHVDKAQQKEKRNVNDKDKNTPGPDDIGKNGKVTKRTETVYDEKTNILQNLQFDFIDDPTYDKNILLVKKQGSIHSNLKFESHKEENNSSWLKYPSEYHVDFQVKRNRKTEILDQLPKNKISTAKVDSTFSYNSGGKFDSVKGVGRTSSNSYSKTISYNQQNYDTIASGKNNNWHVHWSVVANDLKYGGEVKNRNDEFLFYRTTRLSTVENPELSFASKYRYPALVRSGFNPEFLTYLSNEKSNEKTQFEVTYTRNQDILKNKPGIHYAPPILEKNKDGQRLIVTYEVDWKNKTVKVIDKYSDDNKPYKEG
T3 chain 2: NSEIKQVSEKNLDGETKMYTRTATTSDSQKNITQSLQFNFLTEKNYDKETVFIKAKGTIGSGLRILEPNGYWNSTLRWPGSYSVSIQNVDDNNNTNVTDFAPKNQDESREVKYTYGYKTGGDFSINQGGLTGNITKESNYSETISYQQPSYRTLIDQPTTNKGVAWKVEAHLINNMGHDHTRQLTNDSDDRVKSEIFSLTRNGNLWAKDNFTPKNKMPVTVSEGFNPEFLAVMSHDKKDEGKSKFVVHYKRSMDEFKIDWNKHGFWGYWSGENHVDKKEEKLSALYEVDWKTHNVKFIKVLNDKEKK

[2] = biological target: T4, LukGH of S. aureus USA300 TCH1516 (UniProt Q2FFA2 28-351; P21224 30-338); assay: ForteBio
T4 chain 1: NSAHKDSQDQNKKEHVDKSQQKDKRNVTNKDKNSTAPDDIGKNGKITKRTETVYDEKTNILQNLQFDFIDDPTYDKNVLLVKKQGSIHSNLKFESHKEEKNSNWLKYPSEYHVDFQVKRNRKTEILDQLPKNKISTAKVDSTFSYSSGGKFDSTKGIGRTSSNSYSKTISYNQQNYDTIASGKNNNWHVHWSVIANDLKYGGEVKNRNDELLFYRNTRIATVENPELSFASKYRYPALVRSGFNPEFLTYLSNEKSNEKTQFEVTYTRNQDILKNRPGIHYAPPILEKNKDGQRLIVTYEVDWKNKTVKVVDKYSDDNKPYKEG
T4 chain 2: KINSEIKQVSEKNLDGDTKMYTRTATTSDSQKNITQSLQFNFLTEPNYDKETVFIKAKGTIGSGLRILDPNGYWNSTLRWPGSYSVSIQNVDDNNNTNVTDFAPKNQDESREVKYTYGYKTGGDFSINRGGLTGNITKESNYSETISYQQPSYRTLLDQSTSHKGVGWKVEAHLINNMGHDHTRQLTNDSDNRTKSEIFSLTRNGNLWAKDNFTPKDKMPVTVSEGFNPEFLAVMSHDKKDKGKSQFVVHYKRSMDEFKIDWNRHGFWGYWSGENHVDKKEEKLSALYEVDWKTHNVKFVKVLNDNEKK

LukGH_MRSA252 = biological target: T5, LukGH_MRSA252; assay: ForteBio
T5 chain 1: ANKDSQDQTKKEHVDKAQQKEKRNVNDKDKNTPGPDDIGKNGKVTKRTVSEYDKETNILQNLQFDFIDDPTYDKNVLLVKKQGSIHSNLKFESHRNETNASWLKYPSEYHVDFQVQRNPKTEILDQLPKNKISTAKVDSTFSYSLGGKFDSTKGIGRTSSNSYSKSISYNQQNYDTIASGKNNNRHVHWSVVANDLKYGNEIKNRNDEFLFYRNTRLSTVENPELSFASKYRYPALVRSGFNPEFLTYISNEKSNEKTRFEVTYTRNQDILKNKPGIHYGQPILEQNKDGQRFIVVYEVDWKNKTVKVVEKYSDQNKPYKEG
T5 chain 2: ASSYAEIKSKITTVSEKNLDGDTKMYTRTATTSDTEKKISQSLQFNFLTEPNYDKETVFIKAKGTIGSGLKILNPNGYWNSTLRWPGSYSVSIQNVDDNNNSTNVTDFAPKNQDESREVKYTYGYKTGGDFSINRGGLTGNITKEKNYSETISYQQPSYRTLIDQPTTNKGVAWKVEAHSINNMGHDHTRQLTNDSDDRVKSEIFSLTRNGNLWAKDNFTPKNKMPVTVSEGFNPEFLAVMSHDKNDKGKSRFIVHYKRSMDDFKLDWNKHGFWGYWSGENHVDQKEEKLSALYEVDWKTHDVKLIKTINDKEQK

LukG_TCH1516 [3] = biological target: T2, LukG_TCH1516; assay: MSD; Fab
[4] = biological target: T4, LukGH of S. aureus USA300 TCH1516; assay: MSD; Fab

Row | Binder | Kd (LukGH_MSHR1132) [nM] | Kd (LukG_TCH1516 [1]) [nM] | Kd (LukGH_H19) [nM] | Kd [2] [nM] | Kd (LukGH_MRSA252) [nM] | Kd (LukG_TCH1516 [3]) [nM] | Kd [4] [nM]
1 | AB-30-3 (antibody, V domains shown) VH: QVQLVQSGAEVKKPGSSVKVSCKASGGTFSSYAISWVRQAPGQGLEWMGVIEPIFGFANYAQKFQGRVTITADESTSTAYMELSSLRSEDTAVYYCARDAGCSSTSCHKDVYFDYWGQGTLVTVSS VL: DIQMTQSPSSLSASVGDRVTITCRASQSISSYLNWYQQKPGKAPKLLIYGASSLQSGVPSRFSGSGSGTDFTLTISSLQPEDFATYYCQQAYYPPWTFGGGTKVEIKR | 0.39 | 15.5 | 0.22 | 0.24 | 0.28 | 0.046 | 0.0005
2 | AB-31 (antibody, V domains shown) VH: EVQLVESGGGLVQPGRSLRLSCAASGFTFYDYNMHWVRQAPGKGLEWVSGISWNSGSIAYADSVKGRFTISRDNAKNSLYLQMNSLRAEDTALYYCAKAQKGTAFDIWGQGTMVTVSS VL: DIQMTQSPSSLSASVGDRVTITCQASQDITNYLNWYQQKPGKAPKLLIYDASNLETGVPSRFSGSGSGTDFTFTISSLQPEDIATYYCQQYPVYPPTFGGGTKVEIKR | 0.25 | 9.7 | 0.24 | < 0.1 | 0.25 | 0.12 | 0.00052
